Measured values: patent US20240400677A1 (ELECTRA THERAPEUTICS, published 2024)
Where a chain is given by its changes, count along the chain named.

T1: cynomolgus monkey SIRPα on CHO cells (cynomolgus monkey, UniProt A0A2K5VYQ9 31-507)
T1 construct: whole, on cells; also called Cyno SIRPα CHO
T1 sequence: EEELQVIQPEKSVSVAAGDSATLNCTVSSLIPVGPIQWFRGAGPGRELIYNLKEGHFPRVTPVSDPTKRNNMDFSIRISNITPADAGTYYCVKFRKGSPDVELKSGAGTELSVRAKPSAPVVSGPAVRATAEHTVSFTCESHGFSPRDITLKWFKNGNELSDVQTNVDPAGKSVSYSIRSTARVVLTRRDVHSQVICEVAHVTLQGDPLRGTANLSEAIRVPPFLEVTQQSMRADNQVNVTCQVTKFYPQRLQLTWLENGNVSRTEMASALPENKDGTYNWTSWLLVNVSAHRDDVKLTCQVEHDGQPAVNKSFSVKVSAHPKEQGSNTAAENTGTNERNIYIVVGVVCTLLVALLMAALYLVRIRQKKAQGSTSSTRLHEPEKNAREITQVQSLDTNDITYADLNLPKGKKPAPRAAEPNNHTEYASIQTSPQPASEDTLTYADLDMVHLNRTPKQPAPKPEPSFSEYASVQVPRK

T2: cynomolgus monkey SIRPγ on CHO cells (cynomolgus monkey, UniProt Q9P1W8 29-386 (human entry))
T2 construct: also called Cyno SIRPγ CHO
T2 chain: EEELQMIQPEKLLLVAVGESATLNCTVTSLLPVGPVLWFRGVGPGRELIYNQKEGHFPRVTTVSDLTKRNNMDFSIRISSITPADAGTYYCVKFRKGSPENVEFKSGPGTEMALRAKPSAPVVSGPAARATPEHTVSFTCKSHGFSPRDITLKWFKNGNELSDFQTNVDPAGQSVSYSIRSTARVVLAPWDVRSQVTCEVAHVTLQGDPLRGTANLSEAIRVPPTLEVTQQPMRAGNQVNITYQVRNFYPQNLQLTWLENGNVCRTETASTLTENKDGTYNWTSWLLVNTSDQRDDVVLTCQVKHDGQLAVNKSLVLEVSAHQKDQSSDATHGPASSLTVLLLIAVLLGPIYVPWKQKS

B1: Antibody 45 (scFv, V domains shown)
VH: QVQLVQSGAEVKKPGASVKVSCKASGYTFTSYGISWVRQAPGQGLEWMGWISAYNGNTNYAQKFQGRVTMTRDTSTSTVYMELSSLRSEDTAVYYCARGTYYDYIWGSYRYSWFDYWGQGTLVTVSS
VL: not shown
notes: scFv in crude PPE, V5/myc-tagged
B2: Antibody 39 (scFv, V domains shown)
VH: QVQLVQSGAEVKKPGASVKVSCKASGGTFSNYGFSWVRQAPGQGLEWMGWMSPSSGNTGYAQKFQGRVTMTRDTSTSTVYMELSSLRSEDTAVYYCARERSGSYFDYWGQGTLVTVSS
VL: EIVMTQSPATLSVSPGERATLSCRASQSVSSYLAWYQQKPGQAPRLLIYGTSTRATGIPARFSGSGSGTEFTLTISSLQSEDFAVYYCQQYGSLPFTFGQGTRLEIK
notes: as for B1
B3: Antibody 53 (scFv, V domains shown)
VH: QVQLVQSGAEVKKPGASVKVSCKASGHTFNNNYIHWVRQAPGQGLEWMGIINPSGGSTSYAQKFQGRVTMTRDTSTSTVYMELSSLRSEDTAVYYCARQIQDYGYYYYGMDVWGQGTTVTVSS
VL: B2 VL with S31K, G50A, T51I, T53A, T56A, G92Y, L94S, F96P, R103K, L104V
notes: as for B1
B4: Antibody 44 (scFv, V domains shown)
VH: QVQLVQSGAEVKKPGSSVKVSCKASGGTFSKIAVSWVRQAPGQGLEWMGLINPNSGGTDYAQKFQGRVTITADESTSTAYMELSSLRSEDTAVYYCAKDFRGGDYYYYGMDVWGQGTTVTVSS
VL: B2 VL with Y32N, T51A, G92N, S93T, L94Y, F96I, R103K, L104V
notes: as for B1
B5: Antibody 52 (scFv, V domains shown)
VH: QVQLVQSGAEVKKPGASVKVSCKASGYTFTSYDINWVRQAPGQGLEWMGWISGYNGNTNYAQKFQGRVTMTRDTSTSTVYMELSSLRSEDTAVYYCARSFDWLLLLDYWGQGTLVTVSS
VL: DIQMTQSPSSLSASVGDRVTITCRASQSISSWLAWYQQKPGKAPKLLIYDATTLESGVPSRFSGSGSGTDFTLTISSLQPEDFATYYCQQYDSYPWTFGQGTKLEIK
notes: as for B1
B6: Antibody 36 (scFv, V domains shown)
VH: QVQLVQSGAEVKKPGASVKVSCKASGYTFTDNYLHWVRQAPGQGLEWMGIIETSGGSTDYAQKFQGRVTMTRDTSTSTVYMELSSLRSEDTAVYYCARSFGGYSYDDAFDIWGQGTTVTVSS
VL: DIQMTQSPSSLSASVGDRVTITCQASQGISNYLNWYQQKPGKAPKLLIYAASSLQSGVPSRFSGSGSGTDFTLTISSLQPEDFATYYCQQSYSSPYTFGQGTKVEIK
notes: as for B1
B7: Antibody 51 (scFv, V domains shown)
VH: QVQLVQSGAEVKKPGASVKVSCKASGYTFTRYDINWVRQAPGQGLEWMGWMNPNSGNTGYAQKLQGRVTMTRDTSTSTVYMELSSLRSEDTAVYYCARERVGYCSSTSCLHPLDYWGQGTLVTVSS
VL: B6 VL with Q24R, S30R, Y32D, N34G, A50S, S53N, S93D, S94V, Y96L, Q100G
notes: as for B1
B8: Antibody 48 (scFv, V domains shown)
VH: QVQLVQSGAEVKKPGASVKVSCKASGYTFTSYYMHWVRQAPGQGLEWMGWMNPNSGNTGYAQKFQGRVTMTRDTSTSTVYMELSSLRSEDTAVYYCARDQMYSSYGMDVWGQGTTVTVSS
VL: B6 VL with Q24R, Q27E, G28S, S30T, Y32W, N34A, A50K, Q55E, S93G, S94T
notes: as for B1
B9: Antibody 38 (scFv, V domains shown)
VH: QVQLVQSGAEVKKPGASVKVSCKASGGTFSSYDINWVRQAPGQGLEWMGWMNPNSGNTGYAQKFQGRVTMTRDTSTSTVYMELSSLRSEDTAVYYCARDLTLYCSSTSCLDAFDYWGQGTLVTVSS
VL: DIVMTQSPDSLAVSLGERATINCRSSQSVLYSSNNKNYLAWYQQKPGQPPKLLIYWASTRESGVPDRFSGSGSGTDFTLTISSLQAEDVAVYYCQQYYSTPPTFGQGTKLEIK
notes: as for B1
B10: Antibody 75 (antibody, V domains shown)
VH: QVQLVQSGAEVKKPGSSVKVSCKASGGTFSNYAISWVRQAPGQGLEWMGGIIPIFGSTASYAQKFQGRVTITADESTSTAYMELSSLRSEDTAVYYCARGVGDDTLTDWGQGTLVTVSS
VL: DIVMTQSPLSLPVTPGEPASISCRSSQSLLHSNGYNYLDWYLQKPGQSPQLLIYAASSLQSGVPDRFSGSGSGTDFTLKISRVEAEDVGVYYCMQALQTPLTFGGGTKVEIK

Molecular target: T3, human SIRPβ1 on CHO cells (co-transfected with DAP12) (human, UniProt O00241 30-398)
T3 construct: whole, on cells; co-transfected with DAP12; also called Human SIRPβ1 CHO
T3 sequence (O00241 30-398): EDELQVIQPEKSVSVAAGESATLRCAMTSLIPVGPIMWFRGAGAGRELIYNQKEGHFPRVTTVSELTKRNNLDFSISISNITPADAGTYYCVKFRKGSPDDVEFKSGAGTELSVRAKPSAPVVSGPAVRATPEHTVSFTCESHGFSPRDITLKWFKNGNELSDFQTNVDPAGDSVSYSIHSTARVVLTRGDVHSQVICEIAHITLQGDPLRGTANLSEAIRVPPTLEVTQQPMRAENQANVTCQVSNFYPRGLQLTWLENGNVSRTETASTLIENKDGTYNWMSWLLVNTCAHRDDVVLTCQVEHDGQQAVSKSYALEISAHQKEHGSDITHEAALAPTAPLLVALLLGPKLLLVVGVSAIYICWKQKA
Experiment: flow cytometry

Row | Binder | binding result
1 | B1 | no binding (tested: fold change <2.0)
2 | B2 | no binding (tested: fold change <2.0)
3 | B3 | no binding (tested: fold change <2.0)
4 | B4 | no binding (tested: fold change <2.0)
5 | B5 | no binding (tested: fold change <2.0)
6 | B6 | no binding (tested: fold change <2.0)
7 | B7 | no binding (tested: fold change <2.0)
8 | B8 | no binding (tested: fold change <2.0)
9 | B9 | no binding (tested: fold change <2.0)

Molecular target: T1, cynomolgus monkey SIRPα on CHO cells
Experiment: flow cytometry

Row | Binder | binding result
10 | B1 | no binding (tested: fold change <2.0)
11 | B2 | no binding (tested: fold change <2.0)
12 | B3 | no binding (tested: fold change <2.0)
13 | B4 | no binding (tested: fold change <2.0)
14 | B5 | no binding (tested: fold change <2.0)
15 | B6 | no binding (tested: fold change <2.0)
16 | B7 | no binding (tested: fold change <2.0)
17 | B8 | no binding (tested: fold change <2.0)
18 | B9 | no binding (tested: fold change <2.0)

Molecular target: T4, human SIRPγ on stably transfected CHO cells (human, UniProt Q9P1W8 29-387)
T4 construct: also called Human SIRPγ CHO
T4 sequence (Q9P1W8 29-387 limits assumed): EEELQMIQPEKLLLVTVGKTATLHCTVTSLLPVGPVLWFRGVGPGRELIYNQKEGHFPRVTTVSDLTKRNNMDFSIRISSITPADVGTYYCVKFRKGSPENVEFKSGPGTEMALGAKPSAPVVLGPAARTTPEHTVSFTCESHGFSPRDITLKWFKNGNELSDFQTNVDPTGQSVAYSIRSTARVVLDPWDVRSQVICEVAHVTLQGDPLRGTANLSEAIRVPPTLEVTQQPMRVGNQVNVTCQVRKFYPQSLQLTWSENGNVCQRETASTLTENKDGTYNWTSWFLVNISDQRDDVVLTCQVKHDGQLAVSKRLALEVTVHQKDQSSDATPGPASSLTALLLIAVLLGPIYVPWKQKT
Experiment: flow cytometry, myc-scFv PPE
Description: (§1) Selected antibodies were tested for binding to stably transfected human SIRPγ, SIRPαV1, or SIRPβ1 (co-transfected with DAP12) Chinese hamster ovary (CHO) cells via flow cytometry. A titration of select antibodies was added to the cells and detected using a fluorescently labelled secondary anti-rat IgG antibody or anti-human IgG antibody. Graphs depict the median fluorescence intensity (MFI) at each concentration. FIGS. 5A and 5G show the binding curves of select antibodies to human SIRPγ, cynomolgus monkey SIRPγ, human SIRPα, cynomolgus monkey SIRPα, human SIRPβ1, or cynomolgus monkey SIRPβl-expressing CHO cells detected using an anti-rat IgG antibody. FIGS. 5B-5F and 5H-5L show the binding curves of select antibodies to human SIRPγ, cynomolgus monkey SIRPγ, human SIRPα, cynomolgus monkey SIRPα, human SIRPβ1, or cynomolgus monkey SIRPβ1-expressing CHO cells detected using an anti-human IgG antibody. […] For select antibodies, each myc-tagged SIRPγ scFv antibody as crude PPE was incubated with each of the SIRP-expressing cell lines stated above along with the parental CHO-K1 cell line. […] Fold change value <2.0 is considered a non-binder.

Row | Binder | MFI fold change over parental CHO [fold]
19 | B1 | 24.3
20 | B2 | 16.4
21 | B3 | 5.97
22 | B4 | 16
23 | B5 | 14.7
24 | B6 | 42.4
25 | B7 | 20
26 | B8 | 12.1
27 | B9 | 14.8

Molecular target: T2, cynomolgus monkey SIRPγ on CHO cells
Experiment: flow cytometry, myc-scFv PPE
Description: as §1

Row | Binder | MFI fold change over parental CHO [fold]
28 | B1 | 18.2
29 | B2 | 39.5
30 | B3 | 6.94
31 | B4 | 26.7
32 | B5 | 16.3
33 | B6 | 37.7
34 | B7 | 18.8
35 | B8 | 9.25
36 | B9 | 16.7

Molecular target: T3, human SIRPβ1 on CHO cells …
Experiment: flow cytometry, CHO transfectants, anti-human IgG
Description: as §1

Row | Binder | binding result
37 | B10 | no binding (tested: about 20 µg/mL)

Molecular target: T1, cynomolgus monkey SIRPα on CHO cells
Experiment: flow cytometry, CHO transfectants, anti-human IgG
Description: as §1

Row | Binder | binding result
38 | B10 | no binding (tested: about 20 µg/mL)

Molecular target: T5, human SIRPγ-His monomer protein (human, UniProt Q9P1W8 29-360)
T5 construct: also called hSIRPγ
T5 sequence (Q9P1W8 29-360 limits assumed): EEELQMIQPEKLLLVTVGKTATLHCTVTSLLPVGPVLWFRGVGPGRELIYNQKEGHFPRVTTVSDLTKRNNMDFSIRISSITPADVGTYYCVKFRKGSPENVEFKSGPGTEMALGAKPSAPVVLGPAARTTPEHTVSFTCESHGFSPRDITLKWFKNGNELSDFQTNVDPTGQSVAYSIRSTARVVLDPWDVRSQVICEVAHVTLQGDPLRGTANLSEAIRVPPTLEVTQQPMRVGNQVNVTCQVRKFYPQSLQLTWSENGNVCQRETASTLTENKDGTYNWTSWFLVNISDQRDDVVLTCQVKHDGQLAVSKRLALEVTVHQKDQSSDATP
Experiment: BLI Octet, V5-scFv PPE captured, SIRP-His 500 nM

Row | Binder | kdis [s⁻¹]
39 | B1 | > 0.01
40 | B2 | 0.001 to 0.01
41 | B3 | > 0.01
42 | B4 | > 0.01
43 | B5 | > 0.01
44 | B6 | < 0.001
45 | B7 | 0.001 to 0.01
46 | B8 | 0.001 to 0.01
47 | B9 | 0.001 to 0.01
